The values that follow come from EP4324846A1 (Eberhard Karls Universität Tübingen, Medizinische Fakultät, dated 2024).

Test [1] concerns the target T1, d3-wt (human EGFR domain 3) (human, UniProt P00533 337-504, limits assumed).
T1 construct: Expressed in E. coli from pET-28a(+) and purified on a HisTrap column; Monomeric fraction used; also called wild type d3; wild-type d3 domain
Put plainly: SPR (Biacore X100), HB-EGF immobilized on CM5, multi-cycle kinetics.

In test [2] the target is T2, EGF (Peprotech AF-100-15) (UniProt P01133 971-1023).
T2 construct: Immobilized on a CM5 chip by amine coupling; Also added at 400 pM in the A431 proliferation assay; also called epidermal growth factor
As to the kind of experiment: SPR, EGF immobilized; reference d3-wt.

Test [3] addresses T2, EGF (Peprotech AF-100-15). Put plainly: SPR (Biacore X100), EGF immobilized on CM5, multi-cycle kinetics.

T2 sequence (P01133 971-1023 limits assumed): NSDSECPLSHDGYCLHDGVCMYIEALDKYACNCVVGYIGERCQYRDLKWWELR

B1: HB-EGF (R&D Systems 259-HE-050/CF) (ligand, UniProt Q99075 63-148, looked up)
chain: DLQEADLDLLRVTLSSKPQALATPNKEEHGKRKKKGKGLGKKRDPCLRKYKDFCIHGECKYVKELRAPSCICHPGYHGERCHGLSL
notes: Immobilized on a CM5 chip by amine coupling
In turn, B1 yielded a Kd in test [1] of 263 nM.

B2: dd3-1 (designed binder)
chain: ANGIGIGEFKDSLSIWAWNIKHFKNARSISGDLHILPVAFRGDSFTHTPPLEPKELEILKTVKEITGYLLVQAWPENRTDLHAFENLEIIRGRTKQHGQFSLAVVSLNVTSLGLRSLKEISDGDVIMSGNKNLKMANEMNWKKMFGTSGQKTKIISNRGE
notes: Expressed in E. coli from pET-28a(+) and purified on a HisTrap column; also called design
Regarding B2, in test [2], the “fold tighter binding than d3-wt” value came out at 5 fold. The molecule further had a dissociation constant Kd in test [3] of 10 nM.
